Assay results reported in article PMC5725494, “Cell cycle-dependent phosphorylation regulates RECQL4 pathway choice and ubiquitination in DNA double-strand break repair”.

Tests used:
Test in all cases: EMSA; 25 or 50 nM protein, 0.5 nM DNA; 5 mM MnCl2, no ATP; 25 mM HEPES pH 7.4, 5 mM MnCl2, 1 mM DTT, 100 ng/mL BSA, 5% glycerol, no ATP; 10 min at 37 °C; 10% native PAGE
Conditions in all cases: protein: recombinant; tags: 3xFLAG; label: 5'-32P on Mix3-19 (S13); fork: 19 bp duplex with 5' T15 arm (strand 1) and 3' T15 arm (strand 2)
RECQL4 RQ4-2D = biological target: T1, RECQL4 RQ4-2D (UniProt O94761 1-1208, S89D;S251D)
T1 sequence: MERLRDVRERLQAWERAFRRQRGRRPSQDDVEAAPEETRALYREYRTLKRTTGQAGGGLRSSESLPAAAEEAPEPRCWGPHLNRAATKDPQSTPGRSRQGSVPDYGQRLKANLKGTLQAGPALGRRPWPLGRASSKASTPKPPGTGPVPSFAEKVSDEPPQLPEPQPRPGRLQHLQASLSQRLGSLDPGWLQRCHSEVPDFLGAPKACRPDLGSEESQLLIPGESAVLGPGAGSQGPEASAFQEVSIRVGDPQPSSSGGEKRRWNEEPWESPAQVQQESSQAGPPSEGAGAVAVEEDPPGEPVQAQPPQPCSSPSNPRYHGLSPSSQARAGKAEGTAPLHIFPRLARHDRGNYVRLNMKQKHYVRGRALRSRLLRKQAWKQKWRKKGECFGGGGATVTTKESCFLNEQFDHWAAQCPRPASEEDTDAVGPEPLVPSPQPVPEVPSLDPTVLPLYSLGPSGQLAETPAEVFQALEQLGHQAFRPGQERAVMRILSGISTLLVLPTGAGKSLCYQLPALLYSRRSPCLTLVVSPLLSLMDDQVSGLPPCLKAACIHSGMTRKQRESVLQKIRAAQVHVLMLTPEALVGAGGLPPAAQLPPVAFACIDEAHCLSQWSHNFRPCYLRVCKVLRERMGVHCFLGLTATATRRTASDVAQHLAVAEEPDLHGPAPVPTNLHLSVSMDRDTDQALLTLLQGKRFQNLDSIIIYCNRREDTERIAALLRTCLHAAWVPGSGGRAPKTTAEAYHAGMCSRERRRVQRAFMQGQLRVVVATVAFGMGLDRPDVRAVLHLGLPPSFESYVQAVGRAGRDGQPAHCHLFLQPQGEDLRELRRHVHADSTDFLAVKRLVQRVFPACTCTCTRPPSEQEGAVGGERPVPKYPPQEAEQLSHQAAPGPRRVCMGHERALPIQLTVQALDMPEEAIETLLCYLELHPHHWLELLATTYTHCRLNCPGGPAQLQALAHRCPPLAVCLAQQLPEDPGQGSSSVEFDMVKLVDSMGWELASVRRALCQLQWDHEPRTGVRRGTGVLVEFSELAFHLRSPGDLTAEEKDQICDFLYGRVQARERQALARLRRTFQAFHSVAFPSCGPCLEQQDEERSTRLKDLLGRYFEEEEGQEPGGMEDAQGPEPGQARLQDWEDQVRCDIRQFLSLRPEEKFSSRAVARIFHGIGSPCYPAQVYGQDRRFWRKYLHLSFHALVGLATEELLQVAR

RECQL4 WT (RQ4Wt) = biological target: T2, RECQL4 WT (RQ4Wt) (UniProt O94761 1-1208)
T2 sequence: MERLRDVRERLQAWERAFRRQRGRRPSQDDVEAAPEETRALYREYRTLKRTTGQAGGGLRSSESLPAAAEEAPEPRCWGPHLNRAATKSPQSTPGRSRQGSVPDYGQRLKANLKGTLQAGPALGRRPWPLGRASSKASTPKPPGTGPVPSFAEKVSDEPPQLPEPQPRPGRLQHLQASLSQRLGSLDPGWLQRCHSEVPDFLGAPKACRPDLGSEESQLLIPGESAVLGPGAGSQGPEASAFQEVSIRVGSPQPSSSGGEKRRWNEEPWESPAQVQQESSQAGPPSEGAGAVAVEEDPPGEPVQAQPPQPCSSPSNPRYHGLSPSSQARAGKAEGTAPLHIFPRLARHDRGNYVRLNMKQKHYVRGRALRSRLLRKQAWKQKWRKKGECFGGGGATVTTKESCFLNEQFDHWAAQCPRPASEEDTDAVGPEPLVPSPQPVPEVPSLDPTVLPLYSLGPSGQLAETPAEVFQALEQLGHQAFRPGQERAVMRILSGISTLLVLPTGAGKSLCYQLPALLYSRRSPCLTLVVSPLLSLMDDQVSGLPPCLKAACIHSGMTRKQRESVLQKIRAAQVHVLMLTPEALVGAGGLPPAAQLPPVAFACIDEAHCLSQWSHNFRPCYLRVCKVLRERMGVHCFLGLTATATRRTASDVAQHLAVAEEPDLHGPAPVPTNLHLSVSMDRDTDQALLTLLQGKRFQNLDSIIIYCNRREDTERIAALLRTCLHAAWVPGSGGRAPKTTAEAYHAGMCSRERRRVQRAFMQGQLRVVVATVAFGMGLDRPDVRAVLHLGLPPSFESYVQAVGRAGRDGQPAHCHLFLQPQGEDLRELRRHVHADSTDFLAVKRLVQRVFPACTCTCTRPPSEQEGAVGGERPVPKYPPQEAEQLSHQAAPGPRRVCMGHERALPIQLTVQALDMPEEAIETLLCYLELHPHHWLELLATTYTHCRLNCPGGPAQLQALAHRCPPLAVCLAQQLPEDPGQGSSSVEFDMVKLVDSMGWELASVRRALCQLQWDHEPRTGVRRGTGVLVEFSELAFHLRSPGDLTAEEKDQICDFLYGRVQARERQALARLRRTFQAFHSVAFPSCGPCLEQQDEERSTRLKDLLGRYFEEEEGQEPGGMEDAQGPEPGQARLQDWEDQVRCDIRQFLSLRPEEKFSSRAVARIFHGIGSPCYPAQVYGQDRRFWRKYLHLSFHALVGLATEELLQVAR

RECQL4 RQ4-2A = biological target: T3, RECQL4 RQ4-2A (UniProt O94761 1-1208, S89A;S251A)
T3 sequence: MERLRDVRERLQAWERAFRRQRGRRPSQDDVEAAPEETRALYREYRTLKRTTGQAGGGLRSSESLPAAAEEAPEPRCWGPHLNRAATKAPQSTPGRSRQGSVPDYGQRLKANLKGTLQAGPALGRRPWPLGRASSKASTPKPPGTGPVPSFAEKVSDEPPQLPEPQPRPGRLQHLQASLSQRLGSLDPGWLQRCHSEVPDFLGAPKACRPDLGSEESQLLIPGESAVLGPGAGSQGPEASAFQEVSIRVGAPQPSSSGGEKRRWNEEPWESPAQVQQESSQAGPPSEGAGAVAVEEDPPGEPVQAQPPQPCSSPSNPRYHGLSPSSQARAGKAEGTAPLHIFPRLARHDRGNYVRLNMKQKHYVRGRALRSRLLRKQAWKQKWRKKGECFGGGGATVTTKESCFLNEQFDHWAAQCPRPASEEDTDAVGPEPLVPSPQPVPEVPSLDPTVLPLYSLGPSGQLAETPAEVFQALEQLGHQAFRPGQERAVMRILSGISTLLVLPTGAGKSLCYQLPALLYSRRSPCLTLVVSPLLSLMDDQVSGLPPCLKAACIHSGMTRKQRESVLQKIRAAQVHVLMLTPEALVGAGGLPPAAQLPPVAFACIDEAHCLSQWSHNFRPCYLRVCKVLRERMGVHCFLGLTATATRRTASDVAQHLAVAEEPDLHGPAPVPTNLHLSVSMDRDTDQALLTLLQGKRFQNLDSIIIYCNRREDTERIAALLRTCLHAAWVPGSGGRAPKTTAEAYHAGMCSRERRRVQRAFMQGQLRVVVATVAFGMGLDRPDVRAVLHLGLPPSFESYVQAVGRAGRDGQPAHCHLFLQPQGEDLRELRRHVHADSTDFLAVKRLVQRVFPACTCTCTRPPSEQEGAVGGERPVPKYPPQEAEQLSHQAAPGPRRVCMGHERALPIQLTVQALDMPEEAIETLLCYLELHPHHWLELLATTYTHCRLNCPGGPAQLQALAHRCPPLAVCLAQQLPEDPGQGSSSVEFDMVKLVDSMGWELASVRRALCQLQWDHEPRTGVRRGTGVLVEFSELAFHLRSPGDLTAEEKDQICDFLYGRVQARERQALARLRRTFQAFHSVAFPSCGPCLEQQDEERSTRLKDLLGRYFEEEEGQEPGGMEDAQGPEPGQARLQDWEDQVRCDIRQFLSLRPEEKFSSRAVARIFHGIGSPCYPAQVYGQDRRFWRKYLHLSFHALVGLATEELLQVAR

Measured: binding signal

B1: Mix3/4-19 Y-shaped duplex (dsDNA)
DNA 1: TTTTTTTTTTTTTTTGAGTGTGGTGTACATGCAC
DNA 2: GTGCATGTACACCACACTCTTTTTTTTTTTTTTT
~40 % DNA shifted: RECQL4 RQ4-2D | RECQL4 WT (RQ4Wt) | RECQL4 RQ4-2A
